The source of these data is patent publication US20220010006A1 (BEIJING HANMI PHARMACEUTICAL, published 2022).

Experiment [1] addresses transmembrane TNFα on Jurkat/tmTNFα cells. In words: cell-based or functional assay.
A further experiment deals with T1, rat IL-17A (rat, UniProt Q61453 18-150, limits assumed).
T1 construct: also called recombinant rat IL-17A
T1 sequence (looked up): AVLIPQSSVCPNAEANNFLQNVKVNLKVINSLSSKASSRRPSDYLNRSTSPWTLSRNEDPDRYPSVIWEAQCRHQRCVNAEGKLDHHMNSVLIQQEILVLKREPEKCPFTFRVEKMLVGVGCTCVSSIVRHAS
Kind of experiment: ELISA, plate-coated antigen 1 µg/mL, anti-human IgG-HRP. The method, then:
(§1) Detailed procedures are as follows: the recombinant mouse TNFα, rat TNFα, mouse IL-17A and rat IL-17A (all purchased from Sino Biological, P. R. China) were coated on wells of a 96-well high-adsorption ELISA plate using a carbonate buffer solution of pH 9.6 at a coating concentration of 1 μg/mL and in a coating amount of 100 μL per well. The coating was performed at 4° C. overnight. The wells were washed with PBST 5 times. The wells were blocked with 300 μL per well of PBST containing 1% BSA, and incubated for 1 hour at 25° C., and washed with PBST 5 times. […] The wells were washed with PBST 5 times. Then, horseradish peroxidase-labeled anti-human IgG antibody (Chemicon, cat #AP 309P) 1:10000 diluted in PBST containing 1% BSA was added in an amount of 100 μL per well, and incubated at 25° C. for 1 hour. The wells were washed with PBST 5 times. The chromogenic substrate TMB was added in an amount of 100 μL per well, and color developed at room temperature for 10 minutes. Color development was terminated by adding 1M H₂SO₄ in an amount of 100 μL per well. The absorbance at 450 nm was read on a microplate reader.
(In general: An ELISA detects its analyte on a solid surface through an enzyme-linked reagent.)

The next experiment concerns the target T2, mouse IL-17A (mouse, UniProt Q62386 26-158).
T2 construct: also called recombinant mouse IL-17A
T2 sequence (looked up): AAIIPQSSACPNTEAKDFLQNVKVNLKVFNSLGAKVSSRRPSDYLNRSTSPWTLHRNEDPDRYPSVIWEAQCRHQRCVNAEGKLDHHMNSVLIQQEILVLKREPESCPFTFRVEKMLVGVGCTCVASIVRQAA
The experiment is described as above. The method, then:
as §1

In general, EC50 refers to the midpoint of the concentration-response curve. Low values mean an effect from little substance, high ones a need for much substance.

Regarding Enbrel® (Fc fusion), in experiment [1], the Apoptosis ratio (%) of Jurkat/tmTNFα cells, Enbrel 1 µg/mL turned out to be 19% and the Apoptosis ratio (%) of Jurkat/tmTNFα cells, Enbrel 10 µg/mL amounted to 21%.
Consider Humira® (antibody), for which, in experiment [1], the Apoptosis ratio (%) of Jurkat/tmTNFα cells, Humira 1 µg/mL stood at 29.9% and the Apoptosis ratio (%) of Jurkat/tmTNFα cells, Humira 10 µg/mL is 28.2%.

B1: anti-mouse IL-17A monoclonal antibody (1D10 variable regions) (antibody, V domains shown)
VH: QVQLKESGPGLVQPSQTLSLTCTVSGFSLTNYYVHWVRQPPGKGLEWMGGVWNDGDTSYNSVLRSRLSITRDTSKSQVLLKMSSLQTEDTATYYCAREGREGFVGYYVMDAWGPGASVTVSS
VL: DIQMTQSPSFLSASVGERVTLSCKASQNINKYLDWFQQKLGEAPKLLIYNADNLHTGIPSRFSGSGSFSDFILTISSLQPEDDATYFCLQRESWPYTFGAGTKLELK
notes: Parental control of BH1654; variable regions from U.S. Pat. No. 7,846,443, 1D10; also called The anti-mouse IL-17A monoclonal antibody; anti-mouse IL-17A mAb
Consider B1, for which the EC50 was determined as 0.032 nM with rat IL-17A and 0.027 nM with mouse IL-17A.
